T1: Cynomolgus GPRC5D (Cynomolgus, UniProt Q9NZD1 1-343 (human entry))
T1 construct: Full length, on stably transfected cells (HEK293-cyGPRC5D, CHO-cyGPRC5D); also called cyGPRC5D
T1 chain: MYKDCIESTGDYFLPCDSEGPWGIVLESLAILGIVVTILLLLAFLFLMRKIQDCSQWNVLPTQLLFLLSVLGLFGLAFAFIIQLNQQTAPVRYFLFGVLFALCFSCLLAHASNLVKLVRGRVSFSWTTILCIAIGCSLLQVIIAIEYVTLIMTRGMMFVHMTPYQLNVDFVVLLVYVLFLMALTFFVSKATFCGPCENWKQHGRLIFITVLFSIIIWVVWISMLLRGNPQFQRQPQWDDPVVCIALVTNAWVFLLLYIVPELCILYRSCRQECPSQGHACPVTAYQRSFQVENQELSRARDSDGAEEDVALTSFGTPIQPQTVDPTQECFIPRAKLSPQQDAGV


Assays:
human GPRC5D [1] = molecular target: T2, human GPRC5D (human, UniProt Q9NZD1 1-345); experiment: flow cytometry, MM.1R cells
T2 construct: Full length, on stably transfected cells (HEK293-hGPRC5D, CHO-hGPRC5D); Also used here for the endogenous GPRC5D of the GPRC5D+ myeloma lines MM.1R, MM.1S and NCI-H929; also called hGPRC5D; G-protein-coupled receptor family C group 5 member D
Protocol: The cell suspension of MM.1R cells in logarithmic growth phase was adjusted to a concentration of 5×10⁵ cells/mL, and 100 μL per well was added to a 96-well U-shaped plate, and centrifuged at 300 g for 5 min. The supernatant was discarded. […] The primary antibody was washed away, and 50 μL/well Alexa Fluro647 labeled goat anti-human IgG FC (1:300 dilution) was added, and incubated on ice for 20 min. After washing once, 50 μL/well of PI was added, incubated for 5 min, and detected by flow cytometry.

human GPRC5D [2] = molecular target: T2, human GPRC5D; experiment: flow cytometry, HEK293-hGPRC5D cells
Protocol: (§1) HEK293-hGPRC5D and HEK293-cyGPRC5D stably transfected cells in logarithmic growth phase were respectively adjusted to a cell density of 5×10⁵ cells/mL. Then, 100 μl/well of the cell suspension was added to a 96-well U-shaped plate, and centrifuged at 300 g for 5 min. The supernatant was discarded. […] The secondary antibody 50 μL/well of Alexa Fluro647 labeled goat anti-human IgG Fe (1:300 dilution) was added, and incubated on ice for 20 min. After washing once, 50 μL/well of PI solution (1:300) was added, incubated for 5 min, and detected by flow cytometry.

[3] = molecular target: T3, CD3 receptor on the surface of Jurkat cells (human, UniProt P07766 23-207); experiment: flow cytometry, Jurkat cells
T3 construct: whole, on cells; Whole CD3/TCR complex on Jurkat cells; also called Jurkat T
Protocol: The cell concentration was adjusted with 4% calf serum to 5×10⁵ cells/mL. 100 μL per well was added to a 96-well U-shaped plate, and centrifuged at 300 g. The supernatant was removed. […] The secondary antibody 50 μL/well of Alexa Fluro647 labeled goat anti-human IgG Fc (1:300 dilution) was added, and incubated on ice for 20 min. After washing once, 50 μL/well of PI was added, incubated for 5 min, and detected by flow cytometry.

Cynomolgus GPRC5D [4] = molecular target: T1, Cynomolgus GPRC5D; experiment: flow cytometry, HEK293-cyGPRC5D cells
Protocol: as §1

[5] = molecular target: T3, CD3 receptor on the surface of Jurkat …; experiment: cell-based or functional assay
human GPRC5D [6] = molecular target: T2, human GPRC5D; experiment: cell-based or functional assay
Cynomolgus GPRC5D [7] = molecular target: T1, Cynomolgus GPRC5D; experiment: flow cytometry, HEK293-cyGPRC5D cells against HEK293-hGPRC5D cells
Protocol: as §1

human GPRC5D [8] = molecular target: T2, human GPRC5D; experiment: flow cytometry, HEK293-hGPRC5D cells; remark: listed apart in the source
Protocol: Cell suspensions of HEK293-hGPRC5D and HEK293-hBCMA stably transfected cells in logarithmic growth phase were adjusted to 5×10⁵ cells/ml. Then, 100 μl/well of the cell suspension was added to a 96-well U-shaped plate, and centrifuged at 300 g for 5 min. The supernatant was discarded. 100 μL per well of serially diluted antibody was added, and incubated at 4° C. for 60 min. The secondary antibody 50 μL/well of Alexa Fluro647 labeled goat anti-human IgG Fc (1:300 dilution) was added, and incubated on ice for 20 min. After washing once, 50 μL/well of PI solution was added, incubated for 5 min, and detected by flow cytometry.

[9] = molecular target: T3, CD3 receptor on the surface of Jurkat …; experiment: flow cytometry on Jurkat cells
Protocol: Jurkat cells in logarithmic growth phase were added with 200 μg/mL mouse IgG, and allowed to stand in an ice bath for 30 min. The cells were adjusted with 4% calf serum to 5×10⁵ cells/mL. 100 μL per well was added to a 96-well U-shaped plate, and centrifuged at 300 g. The supernatant was removed. 100 μL per well of serially diluted antibody was added, and incubated at 4° C. for 60 min. The secondary antibody 50 μL/well of Alexa Fluro647 labeled goat anti-human IgG Fc (1:300 dilution) was added, and incubated on ice for 20 min. After washing once, 50 μL/well of PI was added, incubated for 5 min, and detected by flow cytometry.

human GPRC5D [10] = molecular target: T2, human GPRC5D; experiment: cell-based or functional assay; remark: listed apart in the source

T2 sequence (Q9NZD1 whole entry): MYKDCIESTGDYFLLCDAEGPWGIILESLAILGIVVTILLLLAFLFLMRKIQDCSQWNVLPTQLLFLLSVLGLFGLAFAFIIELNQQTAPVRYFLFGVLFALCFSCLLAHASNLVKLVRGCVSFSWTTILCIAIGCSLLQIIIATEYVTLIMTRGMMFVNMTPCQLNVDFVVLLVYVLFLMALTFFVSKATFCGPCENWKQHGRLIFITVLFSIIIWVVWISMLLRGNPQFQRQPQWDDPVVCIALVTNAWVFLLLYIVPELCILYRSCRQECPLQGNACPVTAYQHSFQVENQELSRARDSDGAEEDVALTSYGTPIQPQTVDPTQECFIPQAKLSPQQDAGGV
T3 sequence (P07766 23-207): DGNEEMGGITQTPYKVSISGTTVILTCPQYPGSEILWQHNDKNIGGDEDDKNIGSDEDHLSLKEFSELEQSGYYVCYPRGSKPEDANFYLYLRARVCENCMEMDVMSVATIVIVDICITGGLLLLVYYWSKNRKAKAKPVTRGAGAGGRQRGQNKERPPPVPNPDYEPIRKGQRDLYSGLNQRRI

Binder	EC50 (human GPRC5D [1])	EC50 (human GPRC5D [2])	EC50 [3]	EC50 (Cynomolgus GPRC5D [4])	Jurkat-NFAT-luc, EC50 [5]	TDCC, EC50 (nM), MM.1R (human GPRC5D [6])	fold difference of affinity, Cynomolgus GPRC5D against human GPRC5D (Cynomolgus GPRC5D [7])	EC50 (human GPRC5D [8])	binding result [9]	TDCC EC50 (nM), HEK293-hGPRC5D (human GPRC5D [10])
2F1 × CD3 H4K7 GPRC5D×CD3 κλ bispecific antibody variant (bispecific antibody, human IgG4 S228P, kappa, lambda, also called h2F1 H4K7) heavy 1: QVQLVQSGAEVKKPGSSVKVSCKASGYSFTGYTMNWVREAPGQGLEWMGLINPYNGGTRYNQKFQGRVTITADESTSTAYMELSSLRSEDTAVYYCARWALRYGMDYWGQGTLVTVSSASTKGPSVFPLAPCSRSTSESTAALGCLVKDYFPEPVTVSWNSGALTSGVHTFPAVLQSSGLYSLSSVVTVPSSSLGTKTYTCNVDHKPSNTKVDKRVESKYGPPCPPCPAPEFEGGPSVFLFPPKPKDTLMISRTPEVTCVVVDVSQEDPEVQFNWYVDGVEVHNAKTKPREEQFNSTYRVVSVLTVLHQDWLNGKEYKCKVSNKGLASSIEKTISKAKGQPREPQVCTLPPSQEEMTKNQVSLSCAVKGFYPSDIAVEWESNGQPENNYKTTPPVLDSDGSFFLVSKLTVDKSRWQEGNVFSCSVMHEALHNHYTQKSLSLSLGK light 1: DIQMTQSPSSLSASVGDRVTITCQASQNVGTNVAWYQKKPGQAPKALIYSASYRNSGVPSRFSGSGSGTDFTFTISSLQPEDIATYFCQQYNSYLLTFGGGTKVEIKRTVAAPSVFIFPPSDEQLKSGTASVVCLLNNFYPREAKVQWKVDNALQSGNSQESVTEQDSKDSTYSLSSTLTLSKADYEKHKVYACEVTHQGLSSPVTKSFNRGEC heavy 2: EVQLVESGGGLVQPGGSLRLSCAASGFTFNTYAMNWVRKAPGKGLEWVGRIRSKYNNYATYYADSVKDRFTISRDDSKNSLYLQMNSLKTEDTAVYYCVRHGNFGNSYVSWFAYWGQGTLVTVSSASTKGPSVFPLAPCSRSTSESTAALGCLVKDYFPEPVTVSWNSGALTSGVHTFPAVLQSSGLYSLSSVVTVPSSSLGTKTYTCNVDHKPSNTKVDKRVESKYGPPCPPCPAPEFEGGPSVFLFPPKPKDTLMISRTPEVTCVVVDVSQEDPEVQFNWYVDGVEVHNAKTKPREEQFNSTYRVVSVLTVLHQDWLNGKEYKCKVSNKGLASSIEKTISKAKGQPREPQVYTLPPCQEEMTKNQVSLWCLVKGFYPSDIAVEWESNGQPENNYKTTPPVLDSDGSFFLYSKLTVDKSRWQEGNVFSCSVMHEALHNHYTQKSLSLSLGK light 2: QAVVTQEPSLTVSPGGTVTLTCRSSTGAVTTSNYANWVQEKPGQAPRGLIGGTNKRAPWTPARFSGSLLGGKAALTITGAQAEDEAEYYCVLWYSNLWVFGGGTKLTVLGQPKAAPSVTLFPPSSEELQANKATLVCLISDFYPGAVTVAWKADSSPVKAGVETTTPSKQSNNKYAASSYLSLTPEQWKSHRSYSCQVTHEGSTVEKTVAPTECS	10.2 nM	2.3 nM	7.2 nM	6.6 nM	0.774 nM	0.009 nM	< 5 fold	–	–	–
GPRC5D × BCMA × CD3 triTCE-v1 trispecific antibody (other, Trispecific antibody: GPRC5D scFv fused to the N-terminus of the heavy chain of the BCMA arm) light 1: DIVLTQSPASLAVSPGQRATITCRASKSVSTSGYSYMHWYQKKPGQPPKLLIYLASNLESGVPARFSGSGSGTDFTLTINPVEAEDTANYYCQHSRELPWTFGQGTKVEIKRTVAAPSVFIFPPSDEQLKSGTASVVCLLNNFYPREAKVQWKVDNALQSGNSQESVTEQDSKDSTYSLSSTLTLSKADYEKHKVYACEVTHQGLSSPVTKSFNRGEC heavy 1: DIQMTQSPSSLSASVGDRVTITCQASQNVGTNVAWYQQKPGQAPKALIYSASYLNSGVPSRFSGSGSGTDFTFTISSLQPEDIATYFCQQYNSYLLTFGCGTKVEIKGGGGSGGGGSGGGGSQVQLVQSGAEVKKPGSSVKVSCKASGYSFTGYTMNWVRQAPGQCLEWMGLINPYNGGTRYNQKFQGRVTITADESTSTAYMELSSLRSEDTAVYYCARWALRYGMDYWGQGTLVTVSSGGGGSGGGGSGGGGSQVQLVQSGSELKKPGASVKVSCKASGYIFTNFGMNWVREAPGQGLEWMGWINTYTGEQIYADGFTGRFVFSLDTSVSTAYLQISSLKAEDTAVYFCARGEIYYGYDVGFVYWGQGTLVTVSSASTKGPSVFPLAPCSRSTSESTAALGCLVKDYFPEPVTVSWNSGALTSGVHTFPAVLQSSGLYSLSSVVTVPSSSLGTKTYTCNVDHKPSNTKVDKRVESKYGPPCPPCPAPEFEGGPSVFLFPPKPKDTLMISRTPEVTCVVVDVSQEDPEVQFNWYVDGVEVHNAKTKPREEQFNSTYRVVSVLTVLHQDWLNGKEYKCKVSNKGLASSIEKTISKAKGQPREPQVCTLPPSQEEMTKNQVSLSCAVKGFYPSDIAVEWESNGQPENNYKTTPPVLDSDGSFFLVSKLTVDKSRWQEGNVFSCSVMHEALHNHYTQKSLSLSLGK light 2: QAVVTQEPSLTVSPGGTVTLTCRSSTGAVTTSNYANWVQEKPGQAPRGLIGGTNKRAPWTPARFSGSLLGGKAALTITGAQAEDEAEYYCVLWYSNLWVFGGGTKLTVLGQPKAAPSVTLFPPSSEELQANKATLVCLISDFYPGAVTVAWKADSSPVKAGVETTTPSKQSNNKYAASSYLSLTPEQWKSHRSYSCQVTHEGSTVEKTVAPTECS heavy 2: EVQLVESGGGLVQPGGSLRLSCAASGFTFNTYAMNWVRKAPGKGLEWVGRIRSKYNNYATYYADSVKDRFTISRDDSKNSLYLQMNSLKTEDTAVYYCVRHGNFGNSYVSWFAYWGQGTLVTVSSASTKGPSVFPLAPCSRSTSESTAALGCLVKDYFPEPVTVSWNSGALTSGVHTFPAVLQSSGLYSLSSVVTVPSSSLGTKTYTCNVDHKPSNTKVDKRVESKYGPPCPPCPAPEFEGGPSVFLFPPKPKDTLMISRTPEVTCVVVDVSQEDPEVQFNWYVDGVEVHNAKTKPREEQFNSTYRVVSVLTVLHQDWLNGKEYKCKVSNKGLASSIEKTISKAKGQPREPQVYTLPPCQEEMTKNQVSLWCLVKGFYPSDIAVEWESNGQPENNYKTTPPVLDSDGSFFLYSKLTVDKSRWQEGNVFSCSVMHEALHNHYTQKSLSLSLGK	–	–	–	–	–	–	–	5.7 nM	binds	0.074 nM
GPRC5D × BCMA × CD3 triTCE-v2 trispecific antibody (other, Trispecific antibody: GPRC5D scFv fused to the N-terminus of the heavy chain of the BCMA arm) light 1: DIVLTQSPASLAVSPGQRATITCRASKSVSTSGYSYMHWYQKKPGQPPKLLIYLASNLESGVPARFSGSGSGTDFTLTINPVEAEDTANYYCQHSRELPWTFGQGTKVEIKRTVAAPSVFIFPPSDEQLKSGTASVVCLLNNFYPREAKVQWKVDNALQSGNSQESVTEQDSKDSTYSLSSTLTLSKADYEKHKVYACEVTHQGLSSPVTKSFNRGEC heavy 1: QVQLVQSGAEVKKPGSSVKVSCKASGYSFTGYTMNWVRQAPGQCLEWMGLINPYNGGTRYNQKFQGRVTITADESTSTAYMELSSLRSEDTAVYYCARWALRYGMDYWGQGTLVTVSSGGGGSGGGGSGGGGSDIQMTQSPSSLSASVGDRVTITCQASQNVGTNVAWYQQKPGQAPKALIYSASYLNSGVPSRFSGSGSGTDFTFTISSLQPEDIATYFCQQYNSYLLTFGCGTKVEIKGGGGSGGGGSGGGGSQVQLVQSGSELKKPGASVKVSCKASGYIFTNFGMNWVREAPGQGLEWMGWINTYTGEQIYADGFTGRFVFSLDTSVSTAYLQISSLKAEDTAVYFCARGEIYYGYDVGFVYWGQGTLVTVSSASTKGPSVFPLAPCSRSTSESTAALGCLVKDYFPEPVTVSWNSGALTSGVHTFPAVLQSSGLYSLSSVVTVPSSSLGTKTYTCNVDHKPSNTKVDKRVESKYGPPCPPCPAPEFEGGPSVFLFPPKPKDTLMISRTPEVTCVVVDVSQEDPEVQFNWYVDGVEVHNAKTKPREEQFNSTYRVVSVLTVLHQDWLNGKEYKCKVSNKGLASSIEKTISKAKGQPREPQVCTLPPSQEEMTKNQVSLSCAVKGFYPSDIAVEWESNGQPENNYKTTPPVLDSDGSFFLVSKLTVDKSRWQEGNVFSCSVMHEALHNHYTQKSLSLSLGK light 2: QAVVTQEPSLTVSPGGTVTLTCRSSTGAVTTSNYANWVQEKPGQAPRGLIGGTNKRAPWTPARFSGSLLGGKAALTITGAQAEDEAEYYCVLWYSNLWVFGGGTKLTVLGQPKAAPSVTLFPPSSEELQANKATLVCLISDFYPGAVTVAWKADSSPVKAGVETTTPSKQSNNKYAASSYLSLTPEQWKSHRSYSCQVTHEGSTVEKTVAPTECS heavy 2: EVQLVESGGGLVQPGGSLRLSCAASGFTFNTYAMNWVRKAPGKGLEWVGRIRSKYNNYATYYADSVKDRFTISRDDSKNSLYLQMNSLKTEDTAVYYCVRHGNFGNSYVSWFAYWGQGTLVTVSSASTKGPSVFPLAPCSRSTSESTAALGCLVKDYFPEPVTVSWNSGALTSGVHTFPAVLQSSGLYSLSSVVTVPSSSLGTKTYTCNVDHKPSNTKVDKRVESKYGPPCPPCPAPEFEGGPSVFLFPPKPKDTLMISRTPEVTCVVVDVSQEDPEVQFNWYVDGVEVHNAKTKPREEQFNSTYRVVSVLTVLHQDWLNGKEYKCKVSNKGLASSIEKTISKAKGQPREPQVYTLPPCQEEMTKNQVSLWCLVKGFYPSDIAVEWESNGQPENNYKTTPPVLDSDGSFFLYSKLTVDKSRWQEGNVFSCSVMHEALHNHYTQKSLSLSLGK	–	–	–	–	–	–	–	7.9 nM	binds	0.045 nM

From patent US20260116966A1 (KEYMED BIOSCIENCES CHENGDU, published 2026)
